Assay results from paper PMC6829326 (International Journal of Molecular Sciences, 2019).
Positions count from the first letter of the chain named.

B1: C-8-2 scFv displayed on phage (scFv, V domains shown)
VH: EVQLVQSGAEVKKPGSSVKVSCKASGGTESSEAISWVRQAPGQGLEWMGGIIPFFGTANYAQKFQGRVTITADESTSTAYMELSSLRSEDTAVYYCARDGRKDYYGSGSYLHYYGMDVWGQGTTVTVSS
VL: ELVMTQSPLSLPVTPGEPASISCRSSQSLLHSNGYNYLDWYLQRPGQSPQLLIYLGSNRASGVPDRFSGSGSGTDFTLKIGRVEAEDVGIYYCMQALQTPLTFGGGTKVEIK
notes: also called C-8-2 clone
B2: C-8-2-4B scFv displayed on phage (scFv, V domains shown)
VH: B1 VH with G26D, T28K, S30K, S31R, G56D, T57K
VL: B1 VL
notes: also called clone C-8-2-4B
B3: C-8-2-4B-10D scFv displayed on phage (scFv, V domains shown)
VH: B1 VH with G26D, T28K, S30K, S31R, G56D, T57K
VL: B1 VL with L30V, L97V

The binders below were run against T1, recombinant MERS-CoV S RBD protein (MERS-CoV, strain ; EMC/2012 …, UniProt K0BRG7) (assay: ELISA). Conditions: one partner purified.
T1 construct: source: bought: Sino Biological Inc
B1: binds. B2: binds. B3: binds.
